Reference: the nanobody polyreactivity screen of Harvey et al. (2022)

assay: yeast display, Sf9 membrane polyspecificity reagent, FACS + sequencing; frameworks hold sequencing errors
Method in brief: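 Galactose induction of a Saccharomyces cerevisiae BJ5465 synthetic nanobody display library ran 36–48 hours. The cells were then stained for 1 hour at 4 °C with 10% biotinylated, detergent-solubilized Sf9 membrane reagent, pulled down on streptavidin microbeads and FACS-sorted into low and high (top ~1%) gates on expression and reagent-binding fluorescence. Labels for polyreactivity follow the gate of origin.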

| Sequence | polyreactivity (PSR sort gate) |
| --- | --- |
| QVQLVESVGGLVQAGGSLRLSCAATGFILAPYAMGWYRQSPGKETELVAAITRSGGITYYADSVKGRFTISRDNAKNTVYLQMNSLKPEDTAVYYCAARNYRYRYARAYDYWGQGTQVTVSS | high polyreactivity |
| QVQLVESGGGLVQAGGSLRLSCAASGSTFTQYVMGWYRQAPGKERELVAAISDSGSTYYADSVKGRFTISRDNAKNTVYLQMNSLKPEDTAVYYCNADDVDFYYGYGYLEYDYWGQGTQVTVSS | low polyreactivity |
| QVQLVESGGGLVQAGGSLRLSCAASGSIFWGYAMGWYRQAPGKERELVAAISSSGGNTYYADSVKGRFTISRDNAKNTVYLQMNSLKPEDTAVYYCAATPEFYGGKITDVYSQYGYWGQGSQVTVSS | low polyreactivity |
| QVQLVESGGGLVQAGGSLRLSCAASGYTFLYYAMGWYRQAPGKEREFVAAISRSGGSTYYADSVKGRFTISRDNAKNTVYLQMNSLKPEDTAVYYCAARFRYQHQRGDYWGQGTQVTVSS | high polyreactivity |
| QVQLVESGGGLVQAGGSLRLSCAASGRSFGVYAMGWYRQAPGKERELVAVISSGGSTTYADSVKGRFTISRDNAKNTVYLQMNSLKPEDTAVYYCAAVSYRRHFGPYNYWGQGTQVTVSS | low polyreactivity |
| QVQLVESGGGLVQAGGSLRLSCAASGRIFKYYAMGWYRQAPGKERELVAAISTSVGSTYYADSVKGRFTISRDNAKNTVYLQMNSLKPEDTAVYYCNTRKYHYFLGGAAGNYWGQGTQVTVSS | high polyreactivity |
| QVQLVESGGGLVQAGGSLRLSCAASGRIFQDYAMGWYRQATGKERELVAAITWSGGRTYYADSVKGRFTISRDNAKNTVYLQMNSLKPEDTAVYYCNRLTQSRLYYGPREYYYWGQGTQVTVSS | high polyreactivity |
| QVQLVESGGGLVQAGGSLRLICAASGRTFRIYAMGWYRQEPGKDRQLVAAIRWSGGTTYYADSVKGRFTISRDYAKNTVYLQMNSLKPDDTSVYYCAADSTNRFDYWGQGTQVTVSS | high polyreactivity |
| QVQLVESGGGLVQAGGSLSLSCAASGFIFGGNAMGWYRQAPGKERELVAAISSGGRTYYADSVKGRFTISRDNAKNTVYLQMNSLKPEDTAVYYLNDYSYHRGRDYWGQGTQVTVSS | low polyreactivity |
| QVQLVESGGGLVQAGGSLRLSCAASGRIFSRYAMGWYRQAPGKERELVAAITQSGTSTYYADSVKGRFTISRDNAKNTVYLQMNSLKPEDTAVYYCNAYRQYRYDYWGQGTQVTVSS | low polyreactivity |
| QVQLVESGGGLVQAGGSLRLSCAASGSTFDYNAMGWYRQAPGKERELVAAISSTGGSTYYADSVKGRFTISRDNAKNTVYLQMNSLKPEDTAVYFCARYYAIVSGYYDDGYWGQGTQVTVSS | high polyreactivity |
| QVQLQESGGGLVQAGGCLSCTASGTIFGQGDMGWYRQAPGKERELVATINDGASTYYADSVKGRFTISRDKAKNTVNLQKNSLKPDDTAVYYCAVFTDITTYFGYWGQGTQVTVSS | low polyreactivity |
| QVQLVESGGGLVQAGGSLRLSCAASGRIFVFYAMGWYRQAPGKERELVAAITSGGSTYYADSVKGRFTISRDNAKNTVYLQMNSLKPEDTAVYYCAARGRVSWSTYWYEYWGQGTQVTVSS | high polyreactivity |
| QVQLVESGGGLVQAGGSLRLSCAASGSIFNLNAMGWYRQAPGTEREFVAGITYSAGRTYYADSVKGRFTISRDNAKNTVYLQMNSLKPVDTAVYYCAARIYSKFTSYGILDSWGQGTQVTVSS | high polyreactivity |
| QVQLVESGGGLVQAGGSLRLSCAASGSTFRLYAMGCYRPAPGKERELVAVISRSGGRTYADSVKGRFTISRDNAKNTVYLQMNSLKPEDTAVYYCAKARHKSPTYTHDSWGQGTQVTVSS | high polyreactivity |
| QVQLVESGGGLVQAGGSLRLSCAASGRIFLWNAMGWYRQAPGKERELVAGIRWSTGSTYYADSVKGRFTISRDNAKNTVYLQKNSLKREDTAVYYCNARSFATGSKVPARGYWGQGTQVTVSS | high polyreactivity |
| QVQLVESGGGLVQAGGSLRLSCAASGITFKYYTMGWYRQAPGKERELVAAISRGGSTNYADSVKGRFTISRDNAKNTVYLQMNSLKPEDTAVYYCAVDVPEFWWYRVIYDGYYWGQGTQVTVSS | high polyreactivity |
| QVQLVESGGGLVQAGGSLRLRCAASGRTFSGYAMGWYRQSPGKERELVAAITASGSSTYYADSVKGRFTSSRDNAKNTVDLQMNSLKPEDTAVYYCAADYTGDWADGPHSLREYDYWGQGTQVTVSS | low polyreactivity |
| QVQLVESGGGLVQAGGSLRLSSAASGFTLGYNAMGWYRQAPGKERELVAGITWSGGSTSYADSVKGRFTISRDNAKNTVYLQMNSLKPEDTAVYYCAKLRRYSGWLPWPYAYDYWGQGTQVTVSS | high polyreactivity |
| QVQLVESGGGLVQAGGSLRLSCAASGSTFYEYAMGWYRQAPGKERELVAAISSGGSTYYADSVTGRFTISRDNAKNTVYLLMNSLKPEDTAVYYCNADCQTYCGEYDYWGQGTQVTVSS | low polyreactivity |

| Sequence | polyreactivity (PSR sort gate) |
| --- | --- |
| QVQLVESGGGLVQAGGSLRLSCAASGFIFDGYTMGRYRQAPGKERELVAAISRSGGRTYYADSVKGRFRISRDNAKNTVYLQMNSLKPEDTAVYYCAVRYRLYSQTVASDYGYWGQGTQVTVSS | high polyreactivity |
| QVQLVESGGGLVQAGGSHRLSCAASGRLFRYYDMGWYRQAPGKERELVARISSTGRTYADSVMGRFTISRDNAKNTVYLQMNSLKPVDTAVYYCAALFHTRGHSKYDYWGQGTQVTVSS | high polyreactivity |
| QVHLVESGGGLVQAGGSLRLSCAASGSTFYAYTMGWYRQAPGKERELVAAISSRGGRTYYADSVKGRFTISRDNAKNTVYLQMNSLKPEDTAVYYCARTSWSGVSYDYWGQGTQVTVSS | high polyreactivity |
| QFQHVESGGGLVQAGGSLRLSCAASGSTFGLYAMGWYRQAPGKERELVADITWSGGSTYYADSVKGRFTISRDNAKNTVYLQMNSLKPEDTAVYYCAARYPWVYYDFDYWGLGTQVTVSS | low polyreactivity |
| QVQLVESGGGLVQAGGSLRLSCAASGRIFQHNTMGWYRQAPGKERELVAAITRGGRTNYADSVKGRFTISRDNAKNTVYLQMNSLKPEDTAVYYCAARYVERHTDYYYWGQGTQVTVSS | low polyreactivity |
| QVQLVESGGGLVQAGGSLRLSCAASGSIFKRNAMGWYRQAPGKERELVASITWRGGRTYYADSVKGRFTISRDNAKNTVYLQMNILKPEDTAVYYCATTQYTSHYDAYGYWGQGTQVTVSS | high polyreactivity |
| QVQLVESGGGLVQAGGSLRLSCAASGLTFSFYAMGWYIPAPGKDTERVAAISSGGGITYYADSVKGRFTISRDNAKNTVYLQMNSLKPEDTALYYCNTDDYYQYWVPSEYYYCGQGTQVTVSS | low polyreactivity |
| QVQLVESGGGLVQAGGSLRLICAASGLTFWYYAMGWYRQAPGKERELVARITRSGVGTYYADSVKGRFTISRDNAKHTVYLQMNSLKPEDTAVYYCNARYQYSWVRYGYDYWGQGTQVTVSS | high polyreactivity |
| QVHLVESGGGLVQAGGSLRISCAAYGRTFRYYAMGCYRQAPAKDRELVAGISSSGDRTYFADSVKGRFTISRDTAKNTVYLQMNSLKPEDTAVYYCAADRGARGDYYWGQGTQVTVSS | high polyreactivity |
| QVQLVESGGGLVQAGGSLRLICAASGRTFCAYAMGWYRQAPGKERELVAAITTSGGSTNYADSVKGRFTISRDTAKYTVYLEMKSLKPEETAVYYCNADPTYHVVNGVGFWGQGTQVTVSS | low polyreactivity |
| QVQLVESGGGLVQAGGILRLSCSASGYISKVYVMGWYRQAPGKERELVAAITNGGRTNYADSVKGRFTISRDNAKNTVYLQMNSLKPEDTAVYYCAARPRWHIRYNYWGQGTQVTVSS | high polyreactivity |
| QVQLEESGGGLGQAGGSLRLSCAASGSIFAYYAMGWYRQAPGKERELVAAISWGGGNTYYADSVKGRFTISRDNAKNNVYLQMNSLKPEDTAVYYCAAEDYYYYGVAYGYWGQGSQVTVSS | high polyreactivity |
| QVQLVESGGGLVQAGGSLRLSCAASGSIFVRYAMGWYRQAPGKERELVAAISSGGRTYYADSVKGRFTISRDNAKYTVYLQMNSLKPEDTAVYYCNAVKRVPSLGPYDYWGQGTQVTVSS | high polyreactivity |
| QVQLVESGGGLVQAGGSLRLSCAASGFTFWYYAMGWYRQAPGKERELVAAITYTGDRTYYADSVKGRFTISRDNAKNTVYLQMNSLKREDTAVYYCDVYLGIRSGTANDYWGQGTQVTVSS | high polyreactivity |
| QVQLVESGGGIVQAGGSLRLSCAASGRIFSPNAMGWYRQAPGKERELVASISSAGSTNYADSVKGRFTISRDNAKNTVDLLMKSLIPEDTAVYYCDADQPYYGYWDWYSHEYDYWGQGTQVSVSS | low polyreactivity |
| QVQLVESGGGLVQAGGSLRLICAASGITTRTYAMGWYRQAPGKDRELVAAISDSGDRTYYADSVKGRFTISRDNAKNTVYLQMNRLKPEDTAVYYCAVDAPGPRCEFWGQGTKVTVSS | low polyreactivity |
| QVQLVESGGGLVQAGGSLRLSCAASGFIFRQNAMGWSRQAPGKDRELVAAISNAGITNYADSVKGRFTISRDNAKITVYLQMNSLKPEDTAVYYCAAVEFRDSTFVVVSSPTSKSDYWGQGTQVTVSS | low polyreactivity |
| QVQLVESGGGLFQAGGSLRLSCAASGFTFPDYAMGSYRQAPGKERELVAAISSDGSTYDADSVKGRFTISRDIAKTTVYLQMNSLKPEDTAVYYCAAYVVWLYGYAYWGQGTQVTVSS | low polyreactivity |
| QVQLVESAGGLVQAGGSLSLSCAASGSMFIYNAMGWYRQAPGKERELVATISSGGSTTYADSVKGRFTISRDNAKNTVYLQMNSLKPEDTAVYYCATDDPPDQYFYLGYYYWGANDYWGQGTQVTVSS | low polyreactivity |
| QVQLVESGGGLVQAGGSLRLSCAASGRTIYVYAMGWYRQAPGKERELVADINWSGGSTYYADSVKGRFTISRDNAKNTVYLQMNSLKPEDTAVYYCAADDWVRRRSHSGPEGYVYWGQGTQVTVSS | low polyreactivity |
